# Data from patent publication US20170051042A1.
# Columns and labels:
# [1] = target: GPIIb/IIIa on mouse platelets (mouse) (UniProt Q9QUM0); assay: mouse platelet depletion assay, unbound FVIII activity in supernatant; the filing calls this non-specific binding, not occurring through the peptide
# [2] = target: GPIIb/IIIa on human platelets (human) (UniProt P08514); assay: platelet depletion assay, 2.5 nM, plasma lacking FVIII and vWF (condition C); the filing calls this non-specific binding to platelets, not through GPIIb/IIIa
# [3] = target: purified GPIIb-IIIa (Innovative Research), immobilized (UniProt P08514); assay: solid phase competition of 3.5 nM biotinylated fibrinogen on coated GPIIb-IIIa, N=4
# Chain of GPIIb/IIIa on mouse platelets (mouse) (Q9QUM0 32-1033, chain 1 of 2): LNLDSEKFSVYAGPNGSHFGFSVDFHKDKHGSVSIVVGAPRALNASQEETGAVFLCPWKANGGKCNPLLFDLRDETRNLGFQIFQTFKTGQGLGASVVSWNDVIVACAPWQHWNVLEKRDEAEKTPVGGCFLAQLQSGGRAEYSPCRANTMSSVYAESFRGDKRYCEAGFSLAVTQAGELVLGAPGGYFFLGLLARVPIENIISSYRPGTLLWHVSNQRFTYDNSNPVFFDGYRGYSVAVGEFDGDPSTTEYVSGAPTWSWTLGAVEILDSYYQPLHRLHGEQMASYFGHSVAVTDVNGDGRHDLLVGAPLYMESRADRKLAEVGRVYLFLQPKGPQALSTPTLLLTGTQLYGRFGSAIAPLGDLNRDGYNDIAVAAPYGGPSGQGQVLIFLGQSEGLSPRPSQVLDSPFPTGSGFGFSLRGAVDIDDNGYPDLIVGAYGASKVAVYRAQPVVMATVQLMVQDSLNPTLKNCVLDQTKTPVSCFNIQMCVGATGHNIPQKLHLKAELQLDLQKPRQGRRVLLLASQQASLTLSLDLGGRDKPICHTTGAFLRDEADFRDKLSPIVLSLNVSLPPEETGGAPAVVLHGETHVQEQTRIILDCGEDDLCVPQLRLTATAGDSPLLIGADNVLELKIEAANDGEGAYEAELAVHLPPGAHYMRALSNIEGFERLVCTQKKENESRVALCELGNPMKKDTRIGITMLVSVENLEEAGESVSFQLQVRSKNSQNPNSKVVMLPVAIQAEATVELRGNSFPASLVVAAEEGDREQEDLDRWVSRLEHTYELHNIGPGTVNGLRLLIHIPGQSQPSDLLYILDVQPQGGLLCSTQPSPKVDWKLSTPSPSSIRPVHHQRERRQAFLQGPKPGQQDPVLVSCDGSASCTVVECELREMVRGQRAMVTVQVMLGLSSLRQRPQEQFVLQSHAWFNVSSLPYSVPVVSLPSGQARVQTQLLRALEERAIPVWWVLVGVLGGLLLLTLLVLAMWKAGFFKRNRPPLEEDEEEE
# Chain of GPIIb/IIIa on mouse platelets (mouse) (O54890 26-787, chain 2 of 2, further chain): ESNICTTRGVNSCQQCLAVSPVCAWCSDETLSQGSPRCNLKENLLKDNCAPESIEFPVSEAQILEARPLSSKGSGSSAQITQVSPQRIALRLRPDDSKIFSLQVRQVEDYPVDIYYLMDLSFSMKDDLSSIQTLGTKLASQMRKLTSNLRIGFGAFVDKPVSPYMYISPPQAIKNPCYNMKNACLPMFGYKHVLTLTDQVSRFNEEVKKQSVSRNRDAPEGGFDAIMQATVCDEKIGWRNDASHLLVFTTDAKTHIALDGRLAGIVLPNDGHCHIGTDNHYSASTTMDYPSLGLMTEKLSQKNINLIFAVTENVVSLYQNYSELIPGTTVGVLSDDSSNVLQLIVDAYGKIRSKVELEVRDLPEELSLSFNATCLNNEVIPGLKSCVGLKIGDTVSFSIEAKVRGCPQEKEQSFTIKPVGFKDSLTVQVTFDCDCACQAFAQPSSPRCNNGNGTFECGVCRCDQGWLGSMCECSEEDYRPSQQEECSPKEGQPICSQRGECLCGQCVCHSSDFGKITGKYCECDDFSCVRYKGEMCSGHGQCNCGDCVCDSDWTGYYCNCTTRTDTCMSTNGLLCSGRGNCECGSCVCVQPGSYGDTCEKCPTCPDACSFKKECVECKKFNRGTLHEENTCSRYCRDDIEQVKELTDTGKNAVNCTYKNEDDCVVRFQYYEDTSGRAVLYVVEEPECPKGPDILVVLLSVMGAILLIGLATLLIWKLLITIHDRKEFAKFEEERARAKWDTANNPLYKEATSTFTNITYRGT
Substance,percent of activity bound [1] [%],percent of FVIII activity bound [2] [%],IC50 [3] [nM]
unmodified recombinant FVIII (from UniProt P00451 20-2351),59,35,
integrilin (peptide),,,1.3
